Test results published in patent US20180112001A1 (Regeneron, published 2018).
Read-outs that look alike come from different tables or passages of the source.

Key:
mouse CD3 = mouse CD3 (mouse, UniProt P22646 22-108); assay: not described (statement in the pharmacokinetic example)
[1] = target: T1, human MUC16 (mucin 16), endogenously expressed on cells (human); assay: cell-based or functional assay
[2] = target: T1, human MUC16 (mucin 16), endogenously …; assay: FACS binding titration on PEO-1 (MUC16+) cells
[3] = target: T2, soluble monomeric human MUC16, truncated format encompassing the last five SEA domains of Mucin-16 (human); assay: SPR Biacore, antibody captured, soluble monomeric hMUC16.mmh injected, 25C
T2 construct: also called hMUC16.mmh; MUC16 "nub"
T2 chain: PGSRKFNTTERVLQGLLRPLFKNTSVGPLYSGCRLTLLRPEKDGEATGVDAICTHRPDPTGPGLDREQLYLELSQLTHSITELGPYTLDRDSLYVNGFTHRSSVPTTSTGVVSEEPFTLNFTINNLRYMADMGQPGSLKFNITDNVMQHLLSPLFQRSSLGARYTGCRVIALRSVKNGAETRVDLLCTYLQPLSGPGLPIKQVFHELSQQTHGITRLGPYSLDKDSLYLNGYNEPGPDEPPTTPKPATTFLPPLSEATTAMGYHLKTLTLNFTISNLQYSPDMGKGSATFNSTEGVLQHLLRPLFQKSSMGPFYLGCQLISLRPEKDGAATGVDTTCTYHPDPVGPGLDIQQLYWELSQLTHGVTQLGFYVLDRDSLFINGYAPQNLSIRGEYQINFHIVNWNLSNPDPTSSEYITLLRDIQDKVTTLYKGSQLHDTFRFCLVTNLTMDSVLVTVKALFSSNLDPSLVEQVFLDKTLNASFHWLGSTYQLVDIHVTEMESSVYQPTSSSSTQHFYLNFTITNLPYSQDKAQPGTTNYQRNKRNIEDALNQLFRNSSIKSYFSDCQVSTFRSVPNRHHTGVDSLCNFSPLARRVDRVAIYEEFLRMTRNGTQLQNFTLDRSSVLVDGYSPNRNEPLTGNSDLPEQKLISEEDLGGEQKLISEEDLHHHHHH

[4] = target: T1, human MUC16 (mucin 16), endogenously …; assay: cell-based or functional assay; remark: listed apart in the source
[5] = target: T3, cynomolgus monkey CD3 on cynomolgus T cells (cynomolgus monkey, UniProt Q95LI5 22-198); assay: FACS binding titration on cynomolgus T cells
T3 construct: whole, on cells; also called cynomolgus CD3
T3 sequence (Q95LI5 22-198): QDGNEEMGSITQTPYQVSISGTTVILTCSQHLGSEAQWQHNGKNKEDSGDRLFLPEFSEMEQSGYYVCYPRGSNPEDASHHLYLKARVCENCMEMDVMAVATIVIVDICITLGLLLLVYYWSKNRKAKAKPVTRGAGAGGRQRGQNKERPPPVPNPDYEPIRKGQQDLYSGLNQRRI

[6] = target: T1, human MUC16 (mucin 16), endogenously …; assay: FACS binding titration on OVCAR3-Luc (MUC16+) cells
[7] = target: T4, human CD3 on cells (Jurkat cells, human T cells) (human, UniProt P07766 23-207; P04234 22-171); assay: FACS binding titration on Jurkat cells
T4 construct: on cells CD3 is part of the TCR complex; also called hCD3
T4 sequence (P07766 23-207 limits assumed, chain 1 of 2): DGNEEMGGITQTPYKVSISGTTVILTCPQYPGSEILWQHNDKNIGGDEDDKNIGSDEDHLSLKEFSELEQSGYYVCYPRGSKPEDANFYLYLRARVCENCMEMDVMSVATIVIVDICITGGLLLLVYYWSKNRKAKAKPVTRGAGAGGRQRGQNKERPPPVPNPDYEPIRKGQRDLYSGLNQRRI
T4 sequence (P04234 22-171 limits assumed, chain 2 of 2): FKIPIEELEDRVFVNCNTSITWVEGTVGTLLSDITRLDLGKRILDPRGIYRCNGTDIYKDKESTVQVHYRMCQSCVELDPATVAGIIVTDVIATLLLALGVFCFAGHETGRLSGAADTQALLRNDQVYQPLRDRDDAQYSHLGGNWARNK

[8] = target: T4, human CD3 on cells (Jurkat cells, human …); assay: cell-based or functional assay
[9] = target: T1, human MUC16 (mucin 16), endogenously …; assay: cell-based or functional assay; remark: listed apart in the source
[10] = target: T4, human CD3 on cells (Jurkat cells, human …); assay: cell-based or functional assay; remark: listed apart in the source
[11] = target: T4, human CD3 on cells (Jurkat cells, human …); assay: FACS binding titration on Jurkat cells; remark: listed apart in the source
[12] = target: T4, human CD3 on cells (Jurkat cells, human …); assay: cell-based or functional assay; remark: listed apart in the source
[13] = target: T1, human MUC16 (mucin 16), endogenously …; assay: FACS binding titration on OVCAR3 (MUC16+) cells
[14] = target: T2, soluble monomeric human MUC16, …; assay: SPR Biacore, antibody captured, soluble monomeric hMUC16.mmh injected, 25C
[15] = target: T5, MUC16 "short" construct expressed on PC3 cells (PC3/MUC16 short) (human); assay: IHC on FFPE cell pellets, PC3/MUC16 Short cells
T5 construct: Transfected into PC3/ATCC cells; part of SEA12, SEA13-SEA16, C-terminal non-SEA region, transmembrane region and cytoplasmic domain; also called "nub" portion of MUC16 without the repeat regions
T5 chain: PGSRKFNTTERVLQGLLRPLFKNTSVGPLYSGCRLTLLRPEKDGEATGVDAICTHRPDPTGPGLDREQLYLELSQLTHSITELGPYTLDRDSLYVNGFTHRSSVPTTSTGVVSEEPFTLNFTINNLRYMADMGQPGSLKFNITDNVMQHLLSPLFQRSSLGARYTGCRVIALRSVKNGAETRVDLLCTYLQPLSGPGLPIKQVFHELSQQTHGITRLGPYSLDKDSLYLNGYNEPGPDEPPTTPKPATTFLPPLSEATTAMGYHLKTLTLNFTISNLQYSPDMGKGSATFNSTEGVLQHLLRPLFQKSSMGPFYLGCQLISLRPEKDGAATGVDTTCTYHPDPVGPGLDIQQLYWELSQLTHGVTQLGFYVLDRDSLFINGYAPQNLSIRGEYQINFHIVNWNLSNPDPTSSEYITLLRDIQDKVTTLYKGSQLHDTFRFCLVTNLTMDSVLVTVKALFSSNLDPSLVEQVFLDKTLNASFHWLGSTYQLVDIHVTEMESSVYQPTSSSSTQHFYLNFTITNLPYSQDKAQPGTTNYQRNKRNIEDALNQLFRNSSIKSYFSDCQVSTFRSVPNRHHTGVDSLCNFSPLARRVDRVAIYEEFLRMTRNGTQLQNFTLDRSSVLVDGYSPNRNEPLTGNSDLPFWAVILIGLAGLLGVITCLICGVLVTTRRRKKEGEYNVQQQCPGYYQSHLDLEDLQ

[16] = target: T1, human MUC16 (mucin 16), endogenously …; assay: MSD electrochemiluminescence cell binding; RLU ratio OVCAR-3/SK-OV-3; Ab 16.7 nM
[17] = target: T1, human MUC16 (mucin 16), endogenously …; assay: MSD electrochemiluminescence cell binding; RLU ratio OVCAR-3/SK-OV-3; Ab 1.9 nM
[18] = target: T1, human MUC16 (mucin 16), endogenously …; assay: MSD electrochemiluminescence cell binding; RLU ratio OVCAR-3/SK-OV-3; Ab 16.7 nM; NS = Non-Specific, ratio <2.5-fold
[19] = target: T2, soluble monomeric human MUC16, …; assay: SPR Biacore, antibody captured, soluble monomeric hMUC16.mmh injected, 25C
[20] = target: T4, human CD3 on cells (Jurkat cells, human …); assay: FACS titration of Jurkat cells
[21] = target: T3, cynomolgus monkey CD3 on cynomolgus T …; assay: FACS titration of cynomolgus T cells

mouse CD3, sequence (P22646 22-108): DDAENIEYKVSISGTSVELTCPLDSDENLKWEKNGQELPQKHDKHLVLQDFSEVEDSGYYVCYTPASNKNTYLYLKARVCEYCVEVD

B1: BSMUC16/CD3-005 (bispecific antibody, V domains shown)
VH 1: QVQLVESGGGLVKPGGSLRLSCAASGFTFSNYYMSWVRQAPGKGLEWISYISGRGSTIFYADSVKGRITISRDNAKNSLFLQMNSLRAEDTAVYFCVKDRGGYSPYWGQGTLVTVSS
VH 2: EVQLVESGGGLVQPGRSLRLSCAASGFTFDDYSMHWVRQAPGKGLEWVSGISWNSGSIGYADSVKGRFTISRDNAKNSLYLQMNSLRAEDTALYYCAKYGSGYGKFYYYGMDVWGQGTTVTVSS
VL: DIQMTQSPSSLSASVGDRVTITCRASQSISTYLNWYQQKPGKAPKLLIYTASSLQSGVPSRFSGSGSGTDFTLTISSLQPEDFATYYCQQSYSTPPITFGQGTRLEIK
notes: Anti-MUC16 VH (H1H8767P), anti-CD3 VH (CD3-VH-G20), common light chain; also called REGN4019; anti-MUC16xCD3 bispecific antibody with CD3-VH-G20 arm
Mouse CD3
  binding result: no binding
[1]
  PEO-1 cell depletion EC50: 0.0774 nM
[2]
  EC50: 2.63 nM
[3]
  Kd: 6 nM
  koff: 0.000564 s⁻¹
  kon: 94100 M⁻¹ s⁻¹
  t ½: 21 min
[4]
  OVCAR3-Luc cell depletion EC50: 0.0516 nM
[5]
  EC50: 1170 nM
[6]
  EC50: 1.47 nM

B2: BSMUC16/CD3-001 (bispecific antibody, V domains shown)
VH 1: QVQLVESGGGLVKPGGSLRLSCAASGFTFSNYYMSWVRQAPGKGLEWISYISGRGSTIFYADSVKGRITISRDNAKNSLFLQMNSLRAEDTAVYFCVKDRGGYSPYWGQGTLVTVSS
VH 2: EVQLVESGGGLVQPGRSLRLSCAASGFTFDDYSMHWVRQAPGKGLEWVSGISWNSGSKGYADSVKGRFTISRDNAKNSLYLQMNSLRAEDTALYYCAKYGSGYGKFYHYGLDVWGQGTTVTVSS
VL: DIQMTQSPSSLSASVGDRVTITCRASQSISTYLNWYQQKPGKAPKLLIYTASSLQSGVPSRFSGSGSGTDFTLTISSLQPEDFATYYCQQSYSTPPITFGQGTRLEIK
notes: Anti-MUC16 VH (H1H8767P), anti-CD3 VH (CD3-VH-G), common light chain; also called anti-MUC16xCD3 bispecific antibody with CD3-VH-G arm
Mouse CD3
  binding result: no binding
[7]
  EC50: 6.44 nM
[8]
  T cell activation (CD69 upregulation) EC50: 0.00588 nM
[9]
  OVCAR3 cell depletion EC50: 0.0224 nM
[10]
  T cells activation (CD25 upregulation) EC50: 0.039 nM
  T cells activation (CD69 upregulation) EC50: 0.00834 nM
[1]
  PEO-1 cell depletion EC50: 0.0256 nM
[2]
  EC50: 3.02 nM
[3]
  Kd: 6.18 nM
  koff: 0.000586 s⁻¹
  kon: 94800 M⁻¹ s⁻¹
  t ½: 20 min
[11]
  EC50: 3.21 nM
[12]
  T cells activation (CD25 upregulation) EC50: 0.0306 nM
  T cells activation (CD69 upregulation) EC50: 0.00298 nM
[4]
  OVCAR3-Luc cell depletion EC50: 0.0154 nM
[5]
  EC50: 15.6 nM
[13]
  EC50: 1.2 nM
[6]
  EC50: 1.32 nM

B3: BSMUC16/CD3-002 (bispecific antibody, V domains shown)
VH 1: QVQLVESGGGLVKPGGSLRLSCAASGFTFSNYYMSWVRQAPGKGLEWISYISGRGSTIFYADSVKGRITISRDNAKNSLFLQMNSLRAEDTAVYFCVKDRGGYSPYWGQGTLVTVSS
VH 2: EVQLVESGGGLVQPGRSLRLSCAASGFTFDDYSMHWVRQAPGKGLEWVSGISWNSGSIGYADSVKGRFTISRDNAKNSLYLQMNSLRAEDTALYYCAKDGSGYGKFYYYGMDVWGQGTTVTVSS
VL: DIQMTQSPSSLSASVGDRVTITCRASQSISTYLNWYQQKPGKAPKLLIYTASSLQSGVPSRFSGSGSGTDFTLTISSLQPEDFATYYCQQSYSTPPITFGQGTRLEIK
notes: Anti-MUC16 VH (H1H8767P), anti-CD3 VH (CD3-VH-G5), common light chain; also called anti-MUC16xCD3 bispecific antibody with CD3-VH-G5 arm
[7]
  EC50: 301 nM
[8]
  T cell activation (CD69 upregulation) EC50: 0.0101 nM
[9]
  OVCAR3 cell depletion EC50: 0.0306 nM
[10]
  T cells activation (CD25 upregulation) EC50: 0.0889 nM
  T cells activation (CD69 upregulation) EC50: 0.0134 nM
[1]
  PEO-1 cell depletion EC50: 0.0675 nM
[2]
  EC50: 3.13 nM
[5]
  binding result: no binding (tested: serial dilution from 66.6 nM to 0.001 nM)
[13]
  EC50: 2.69 nM

B4: H2M7138N (antibody, mouse IgG2, V domains shown)
VH: QVQLVQSGAEVKKPGASVKVSCKASGYTFTSSDINWVRQATGQGLEWVGWMNPNYGYTGSARKFQDRVTMTRNTSLSTAYLELHSLRSEDTAVYYCARVTYCSSVTSCFRPFTYWGQGTLVTVSA
VL: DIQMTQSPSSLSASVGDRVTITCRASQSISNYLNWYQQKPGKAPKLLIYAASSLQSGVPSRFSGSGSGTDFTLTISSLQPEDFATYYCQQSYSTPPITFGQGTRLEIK
notes: Mouse IgG2 constant region (H2M); also called H2aM7138N
[14]
  Kd: 1.25 nM
  koff: 9.25e-05 s⁻¹
  kon: 74100 M⁻¹ s⁻¹
  t ½: 125 min
[15]
  binding result: binds
[16]
  Ratio: anti-MUC16 Binding OVCAR-3/SK-OV-3: 50 ratio
[17]
  Ratio: anti-MUC16 Binding OVCAR-3/SK-OV-3: 82 ratio

B5: H1H8767P (antibody, human IgG1, V domains shown)
VH: QVQLVESGGGLVKPGGSLRLSCAASGFTFSNYYMSWVRQAPGKGLEWISYISGRGSTIFYADSVKGRITISRDNAKNSLFLQMNSLRAEDTAVYFCVKDRGGYSPYWGQGTLVTVSS
VL: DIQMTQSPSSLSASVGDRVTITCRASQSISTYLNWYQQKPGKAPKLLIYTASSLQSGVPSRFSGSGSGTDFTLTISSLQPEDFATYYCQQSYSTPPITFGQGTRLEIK
notes: Human IgG1 (H1H)
[18]
  Ratio: anti-MUC16 Binding OVCAR-3/SK-OV-3: < 2.5 ratio
[19]
  Kd: 3.58 nM
  koff: 0.000418 s⁻¹
  kon: 117000 M⁻¹ s⁻¹
  t1/2: 28 min
[17]
  Ratio: anti-MUC16 Binding OVCAR-3/SK-OV-3: 4 ratio

B6: H1H8808P (antibody, human IgG1, V domains shown)
VH: QVQLVESGGGVVQPGRSLRLSCVASGFTFSNYGIHWVRQAPGKGLEWVAVISDDGSFKFYADSVKGRFTISRDNSKNTLYLQMNSLRVEDSAVYHCAKWQHNWNDGGFDYWGQGTLVTVSS
VL: EIVLTQSPDTLSLSPGERATLSCRASQSLSSNYLAWYRQKPGQAPRLLIYGISSRATGIPDRFSGSGSGTDFTLTISRLEPEDFAVYYCQQYGSSPWTFGQGTKVEIK
notes: Human IgG1 (H1H)
[18]
  Ratio: anti-MUC16 Binding OVCAR-3/SK-OV-3: < 2.5 ratio
[19]
  Kd: 52.4 nM
  koff: 0.000216 s⁻¹
  kon: 4120 M⁻¹ s⁻¹
  t1/2: 54 min
[17]
  Ratio: anti-MUC16 Binding OVCAR-3/SK-OV-3: 4 ratio

B7: CD3-VH-P (anti-CD3 antibody) (antibody, V domains shown)
VH: EVQLVESGGGLVQPGRSLRLSCVASGFTFDDYSMHWVRQAPGKGLEWVSGISWNSGSKDYADSVKGRFTISRDNAKNSLYLQMNSLRAEDTALYYCAKYGSGYGKFYHYGLDVWGQGTTVTVSS
VL: DIQMTQSPSSLSASVGDSVTITCRASQSINNYLNWYQQKPGKAPKLLIYTASSLLSGVPSRFSGSGSGTDFTLTISGLHPEDFATYFCQQSFSTPPITFGQGTRLDIK
[20]
  EC50: 1 to 40 nM
[21]
  EC50: 1 to 40 nM
